From patent US11001838B2, “Platform for screening phosphomevalonate decarboxylase” (The Regents of the University of California, priority 2017, dated 2021)

Legend:
[1] = system: E. coli DH1; assay: Growth of E. coli DH1 under the screening conditions (MEP pathway blocked by fosmidomycin, IPP-bypass pathway + IPK)
[2] = system: E. coli DH1; assay: Isopentenol production in E. coli via IPP-bypass MVA pathway (GC-FID); assay type: cell-based, Escherichia coli
[3] = compared with wild type or library mutants

B1: S155E (protein)
chain: MTVYTASVTAPVNIATLKYWGKRDTKLNLPTNSSISVTLSQDDLRTLTSAATAPEFERDTLWLNGEPHSIDNERTQNCLRDLRQLRKEMESKDASLPTLSQWKLHIVSENNFPTAAGLASSAAGFAALVSAIAKLYQLPQSTSEISRIARKGSGEACRSLFGGYVAWEMGKAEDGHDSMAVQIADSSDWPQMKACVLVVSDIKKDVSSTQGMQLTVATSELFKERIEHVVPKRFEVMRKAIVEKDFATFAKETMMDSNSFHATCLDSFPPIFYMNDTSKRIISWCHTINQFYGETIVAYTFDAGPNAVLYYLAENESKLFAFIYKLFGSVPGWDKKFTTEQLEAFNHQFESSNFTARELDLELQKDVARVILTQVGSGPQETNESLIDAKTGLPKE
[1]; screening platform
  growth under fosmidomycin selection pressure: impaired growth

B2: Q140L (protein)
chain: MTVYTASVTAPVNIATLKYWGKRDTKLNLPTNSSISVTLSQDDLRTLTSAATAPEFERDTLWLNGEPHSIDNERTQNCLRDLRQLRKEMESKDASLPTLSQWKLHIVSENNFPTAAGLASSAAGFAALVSAIAKLYQLPLSTSEISRIARKGSGSACRSLFGGYVAWEMGKAEDGHDSMAVQIADSSDWPQMKACVLVVSDIKKDVSSTQGMQLTVATSELFKERIEHVVPKRFEVMRKAIVEKDFATFAKETMMDSNSFHATCLDSFPPIFYMNDTSKRIISWCHTINQFYGETIVAYTFDAGPNAVLYYLAENESKLFAFIYKLFGSVPGWDKKFTTEQLEAFNHQFESSNFTARELDLELQKDVARVILTQVGSGPQETNESLIDAKTGLPKE
[2]; [3]
  isopentenol titer: increased isopentenol production titers

B3: K22Y: PMDsc mutant K22Y (protein)
chain: MTVYTASVTAPVNIATLKYWGYRDTKLNLPTNSSISVTLSQDDLRTLTSAATAPEFERDTLWLNGEPHSIDNERTQNCLRDLRQLRKEMESKDASLPTLSQWKLHIVSENNFPTAAGLASSAAGFAALVSAIAKLYQLPQSTSEISRIARKGSGSACRSLFGGYVAWEMGKAEDGHDSMAVQIADSSDWPQMKACVLVVSDIKKDVSSTQGMQLTVATSELFKERIEHVVPKRFEVMRKAIVEKDFATFAKETMMDSNSFHATCLDSFPPIFYMNDTSKRIISWCHTINQFYGETIVAYTFDAGPNAVLYYLAENESKLFAFIYKLFGSVPGWDKKFTTEQLEAFNHQFESSNFTARELDLELQKDVARVILTQVGSGPQETNESLIDAKTGLPKE
[2]; 48 hr
  48 hr Titer (isopentenol): 22 (8) mg/L
[2]; text and figure legends, 48 hours after induction
  isopentenol titer: 22 ± 8 mg/L
[1]; Table 2, screening conditions, standard deviation in brackets
  Growth rate: 0.13 (0.11) hr^−1

B4: E144D (protein)
chain: MTVYTASVTAPVNIATLKYWGKRDTKLNLPTNSSISVTLSQDDLRTLTSAATAPEFERDTLWLNGEPHSIDNERTQNCLRDLRQLRKEMESKDASLPTLSQWKLHIVSENNFPTAAGLASSAAGFAALVSAIAKLYQLPQSTSDISRIARKGSGSACRSLFGGYVAWEMGKAEDGHDSMAVQIADSSDWPQMKACVLVVSDIKKDVSSTQGMQLTVATSELFKERIEHVVPKRFEVMRKAIVEKDFATFAKETMMDSNSFHATCLDSFPPIFYMNDTSKRIISWCHTINQFYGETIVAYTFDAGPNAVLYYLAENESKLFAFIYKLFGSVPGWDKKFTTEQLEAFNHQFESSNFTARELDLELQKDVARVILTQVGSGPQETNESLIDAKTGLPKE
[2]; [3]
  isopentenol titer: increased isopentenol production titers

B5: R74G-E144D (protein)
chain: MTVYTASVTAPVNIATLKYWGKRDTKLNLPTNSSISVTLSQDDLRTLTSAATAPEFERDTLWLNGEPHSIDNEGTQNCLRDLRQLRKEMESKDASLPTLSQWKLHIVSENNFPTAAGLASSAAGFAALVSAIAKLYQLPQSTSDISRIARKGSGSACRSLFGGYVAWEMGKAEDGHDSMAVQIADSSDWPQMKACVLVVSDIKKDVSSTQGMQLTVATSELFKERIEHVVPKRFEVMRKAIVEKDFATFAKETMMDSNSFHATCLDSFPPIFYMNDTSKRIISWCHTINQFYGETIVAYTFDAGPNAVLYYLAENESKLFAFIYKLFGSVPGWDKKFTTEQLEAFNHQFESSNFTARELDLELQKDVARVILTQVGSGPQETNESLIDAKTGLPKE
[2]
  isopentenol titer relative to wild type: 1.6 fold
